The values that follow come from article PMC3137622.

Assay [1] addresses monoclonal antibody 7C11 (anti-Bla g 2). The assay can be described thus: competition ELISA. Conditions: chain shown with the change, solid phase rBla g 2-N93Q, read off a plot.
Assay [2] shares this target. The assay can be described thus: ELISA dose-response. Conditions: chain shown with the change, read off a plot. (An ELISA detects its analyte on a solid surface through an enzyme-linked reagent.)
In assay [3] the target is monoclonal antibody 4C3 (anti-Bla g 2). The assay can be described thus: competition ELISA. As to conditions: chain shown with the change, solid phase rBla g 2-N93Q, read off a plot.
Chain of monoclonal antibody 4C3 (anti-Bla g 2) (chain, as listed by the source, chain 1 of 2): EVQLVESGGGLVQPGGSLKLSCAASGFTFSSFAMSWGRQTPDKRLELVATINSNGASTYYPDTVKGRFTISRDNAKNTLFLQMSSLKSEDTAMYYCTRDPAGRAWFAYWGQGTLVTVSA
Chain of monoclonal antibody 4C3 (anti-Bla g 2) (chain, as listed by the source, chain 2 of 2): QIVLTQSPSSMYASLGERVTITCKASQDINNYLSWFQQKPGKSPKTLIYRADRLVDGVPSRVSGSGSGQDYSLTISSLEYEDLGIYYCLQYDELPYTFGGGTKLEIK
Assay [4] shares this target. In words: ELISA dose-response. As to conditions: chain shown with the change, read off a plot.
Setting [5] is: competitor concentration 0.1 µg/ml, parent: est. 47.
Where [6] appears, read: competitor concentration 1 µg/ml, parent: est. 5.
Where [7] appears, read: allergen concentration 100 ng/ml, parent: est. 1.8.
Setting [8] is: competitor concentration 10 µg/ml, parent: est. 1.
Where [9] appears, read: competitor concentration 100 µg/ml, parent: est. 0.
Where [10] appears, read: competitor concentration 1 µg/ml, parent: est. 32.
[11] abbreviates: competitor concentration 10 µg/ml, parent: est. 5.
[12] abbreviates: allergen concentration 100 ng/ml, parent: est. 1.5.
The mark [13] stands for this setting: allergen concentration 100 ng/ml (read on the curve line), parent: est. 1.8.
Setting [14] is: competitor concentration 0.1 µg/ml.
The mark [15] stands for this setting: competitor concentration 1 µg/ml.
[16] abbreviates: allergen concentration 100 ng/ml, parent: est. 1.3.
Setting [17] is: allergen concentration 100 ng/ml, parent: est. 0.48.
The mark [18] stands for this setting: competitor concentration 0.1 µg/ml, parent: est. 82.
Where [19] appears, read: competitor concentration 100 µg/ml, parent: est. 1.
Setting [20] is: allergen concentration about 400 ng/ml (highest point of the series), parent: est. 1.9.

Substitutions are numbered along the chain they refer to. Numbers in names are those of the source.

Chain of monoclonal antibody 7C11 (anti-Bla g 2) (chain, as listed by the source, chain 2 of 2, other chains not shown): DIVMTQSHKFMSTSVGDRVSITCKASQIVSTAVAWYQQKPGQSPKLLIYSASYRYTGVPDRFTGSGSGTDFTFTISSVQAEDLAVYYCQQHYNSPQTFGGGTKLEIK

B1: recombinant Bla g 2-N93Q R83A (protein)
chain: VPLYKLVHVFINTQYAGITKIGNQNFLTVFDSTSCNVVVASQECVGGACVCPNLQKYEKLKPKYISDGNVQVKFFDTGSAVGAGIEDSLTISQLTTSQQDIVLADELSQEVCILSADVVVGIAAPGCPNALKGKTVLENFVEENLIAPVFSIHHARFQDGEHFGEIIFGGSDWKYVDGEFTYVPLVGDDSWKFRLDGVKIGDTTVAPAGTQAIIDTSKAIIVGPKAYVNPINEAIGCVVEKTTTRRICKLDCSKIPSLPDVTFVINGRNFNISSQYYIQQNGNLCYSGFQPCGHSDHFFIGDFFVDHYYSEFNWENKTMGFGRSVESV
Turning to B1, the other: Biotinylated mAb 7C11 bound to Bla g 2 (%) in assay [1] (setting [5]) stood at 82%; in assay [1] (setting [6]), 13%. Besides, the response (Absorbance (405 nm)) in assay [2] (setting [7]) stood at 1.5.

B2: recombinant Bla g 2-N93Q E86A (protein)
chain: B1 chain with A83R, E86A
For B2, the other: Biotinylated mAb 7C11 bound to Bla g 2 (%) came out at 82% in assay [1] (setting [5]) and 18% in assay [1] (setting [6]). Further, the response (Absorbance (405 nm)) in assay [2] (setting [7]) amounted to 1.5.

B3: recombinant Bla g 2-N93Q K132A (protein)
chain: B1 chain with A83R, K132A
Turning to B3, the other: Biotinylated mAb 7C11 bound to Bla g 2 (%) worked out at 100% in assay [1] (setting [5]), 100% in assay [1] (setting [6]), 99% in assay [1] (setting [8]) and 70% in assay [1] (setting [9]). The response (Absorbance (405 nm)) in assay [2] (setting [7]) is 0.12; in assay [2] (allergen concentration about 400 ng/ml (highest point of the series), parent: est. 1.8), 0.15.

B4: recombinant Bla g 2-N93Q E233A (protein)
chain: B1 chain with A83R, E233A
B4: the other: Biotinylated mAb 4C3 bound to Bla g 2 (%) in assay [3] (setting [10]) was found to be 58%; in assay [3] (setting [11]) it was 15%. Also, the response (Absorbance (405 nm)) in assay [4] (setting [12]) came to 1.

B5: recombinant Bla g 2-N93Q D68aA (protein)
chain: B1 chain with D67A, A83R
With B5, the figures for the other: Biotinylated mAb 7C11 bound to Bla g 2 (%) in assay [1] (setting [5]), in assay [1] (setting [6]) and in assay [1] (setting [9]) were 98%, 82% and 5%, respectively. In addition, the response (Absorbance (405 nm)) in assay [2] (setting [13]) is 0.48; in assay [2] (allergen concentration about 4000 ng/ml (highest point of the series; curve at plateau)) it was 0.73.

B6: recombinant Bla g 2-N93Q K65A (protein)
chain: B1 chain with K63A, A83R
In the case of B6, the other: Biotinylated mAb 7C11 bound to Bla g 2 (%) in assay [1] (setting [5]) turned out to be 91%; in assay [1] (setting [6]) it was 47%; in assay [1] (setting [8]), 11%. Besides, the results for the response (Absorbance (405 nm)) in assay [2] (setting [13]) and in assay [2] (allergen concentration about 4000 ng/ml (highest point of the series)) were 0.3 and 1.2, respectively.

B7: natural Bla g 2 N268Q (protein)
chain: B1 chain with A83R, Q93N, N271Q
Regarding B7, the other: Biotinylated mAb 4C3 bound to Bla g 2 (%) was determined as 88% in assay [3] (setting [14]), 46% in assay [3] (setting [15]) and 7% in assay [3] (competitor concentration 10 µg/ml). Further, the response (Absorbance (405 nm)) in assay [4] (setting [16]) worked out at 0.48.

B8: recombinant Bla g 2-N268Q E233R (protein)
chain: B1 chain with A83R, Q93N, E233R, N271Q
Consider B8, for which, in assay [4] (setting [17]), the response (Absorbance (405 nm)) is 1.2.

B9: recombinant Bla g 2-N93Q K251A (protein)
chain: B1 chain with A83R, K254A
As for B9, the other: Biotinylated mAb 4C3 bound to Bla g 2 (%) in assay [3] (setting [18]) was determined as 100%; in assay [3] (setting [10]) it was 100%; in assay [3] (setting [11]), 93%; in assay [3] (setting [19]), 60%. Also, the response (Absorbance (405 nm)) in assay [4] (setting [12]) was found to be 0.14; in assay [4] (setting [20]), 0.27.

B10: recombinant Bla g 2-N93Q E233R (protein)
chain: B1 chain with A83R, E233R
For the molecule B10, the other: Biotinylated mAb 4C3 bound to Bla g 2 (%) in assay [3] (setting [18]) was 72%. Further, in assay [4] (setting [12]), the response (Absorbance (405 nm)) was found to be 1.7.

B11: natural Bla g 2 N93Q (protein)
chain: B1 chain with A83R
Take B11: the other: Biotinylated mAb 4C3 bound to Bla g 2 (%) was 82% in assay [3] (setting [14]) and 32% in assay [3] (setting [15]). In addition, the response (Absorbance (405 nm)) in assay [4] (setting [16]) came to 1.5.

B12: recombinant Bla g 2-N93Q D248A (protein)
chain: B1 chain with A83R, D251A
For B12, the other: Biotinylated mAb 4C3 bound to Bla g 2 (%) in assay [3] (setting [18]) came to 48%; in assay [3] (setting [10]), 7%. In assay [4] (setting [12]), the response (Absorbance (405 nm)) came to 1.8.

B13: recombinant Bla g 2-N93Q E233R; I199W (protein)
chain: B1 chain with A83R, I200W, E233R
Take B13: the other: Biotinylated mAb 4C3 bound to Bla g 2 (%) in assay [3] (setting [18]) is 100%; in assay [3] (setting [10]), 100%; in assay [3] (setting [11]) it was 69%; in assay [3] (setting [19]) it was 22%. Besides, the figures for the response (Absorbance (405 nm)) in assay [4] (setting [12]) and in assay [4] (setting [20]) were 0.14 and 0.27, respectively.

B14: recombinant Bla g 2-N268Q E233R; I199W (protein)
chain: B1 chain with A83R, Q93N, I200W, E233R, N271Q
Take B14: the other: Biotinylated mAb 4C3 bound to Bla g 2 (%) in assay [3] (competitor concentration 0.1 µg/ml, parent: est. 88) is 93%; in assay [3] (competitor concentration 1 µg/ml, parent: est. 46), 82%; in assay [3] (competitor concentration 10 µg/ml, parent: est. 7), 78%; in assay [3] (setting [19]) it was 62%. Further, the response (Absorbance (405 nm)) in assay [4] (setting [17]) was found to be 0.2; in assay [4] (allergen concentration about 400 ng/ml (highest point of the series), parent: est. 1.1) it was 0.4.
